Test system: Soluble human recombinant p97 (melanotransferrin)
Sequence (chain, as listed by the source): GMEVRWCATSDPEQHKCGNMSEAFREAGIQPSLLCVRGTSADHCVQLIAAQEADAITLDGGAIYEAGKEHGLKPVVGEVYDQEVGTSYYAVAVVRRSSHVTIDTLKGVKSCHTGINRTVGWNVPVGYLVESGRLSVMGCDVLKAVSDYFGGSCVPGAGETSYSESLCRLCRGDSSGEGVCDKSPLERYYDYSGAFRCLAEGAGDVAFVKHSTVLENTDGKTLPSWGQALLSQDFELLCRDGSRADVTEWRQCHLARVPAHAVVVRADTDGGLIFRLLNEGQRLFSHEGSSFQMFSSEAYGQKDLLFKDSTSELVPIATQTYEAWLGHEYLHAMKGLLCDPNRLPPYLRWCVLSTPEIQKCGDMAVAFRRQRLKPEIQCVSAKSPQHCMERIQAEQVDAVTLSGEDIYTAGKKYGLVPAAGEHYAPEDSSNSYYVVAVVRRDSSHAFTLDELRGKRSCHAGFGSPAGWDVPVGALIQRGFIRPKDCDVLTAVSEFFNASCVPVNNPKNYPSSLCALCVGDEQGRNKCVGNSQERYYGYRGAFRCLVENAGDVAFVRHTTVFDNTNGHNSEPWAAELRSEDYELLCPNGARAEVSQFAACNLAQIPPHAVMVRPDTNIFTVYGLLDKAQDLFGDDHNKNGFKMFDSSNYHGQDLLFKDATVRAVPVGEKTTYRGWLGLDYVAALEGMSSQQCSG

In the case of “pro-urokinase plasminogen activator (pro-uPA)”, the “VLK-pNA hydrolysis (plasminogen activation by pro-uPA) with 70 nM p97 and 30 nM plasminogen, after 180 min” value is reported as “the VLK-pNA hydrolysis is 4-fold higher after 180 min”, the “VLK-pNA hydrolysis by 90 nM pro-uPA with 70 nM p97, without plasminogen” value is reported as “goes from less than 50 AU/min in the absence of p97 to more than 450 AU/min when p97 is added” and the “half-maximal stimulation of plasminogen cleavage by pro-uPA (initial rates of plasmin activity)” value is reported as “half-maximal stimulation occurring at 25±6 nM”. The “increase of catalytic efficiency of plasminogen activation by pro-uPA with 250 nM p97” value was “increasing the catalytic efficiency by a factor of 2.4-fold”.

— US20070053894
